Test results taken from US20260049151A1 (SHENGHE CHINA BIOPHARMACEUTICAL, published 2026).

How the values were obtained:
Human-TNFR2-His = molecular target: T1, Human-TNFR2-His (human, UniProt P20333 23-257); assay: ELISA: Human-TNFR2-His coated (0.1 ug/mL), antibody titrated, goat anti-human IgG Fc detection (Example 2)
T1 construct: Bought protein; also called human TNFR2 protein; TNFR2 protein; not shown: His tag
T1 sequence (looked up): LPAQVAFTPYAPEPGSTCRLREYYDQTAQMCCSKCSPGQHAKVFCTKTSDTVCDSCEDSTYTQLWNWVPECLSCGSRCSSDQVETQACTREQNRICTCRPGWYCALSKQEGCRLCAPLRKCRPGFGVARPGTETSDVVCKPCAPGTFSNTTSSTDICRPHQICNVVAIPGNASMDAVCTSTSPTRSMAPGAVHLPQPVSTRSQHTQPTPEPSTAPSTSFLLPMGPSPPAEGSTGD
Experimental: Human-TNFR2-His (manufacturer: SINO, CAT: 10417-H08H, LOT: LC15NO0412) was diluted to 0.1 μg/mL with a coating solution (1×PBS, pH7.4), and coated in 96-well ELISA plate at 100 µL/well overnight at 4° C. The coating solution was poured off. Each well was washed with 1×PBST at 300 μL, washed 4 times with a plate washer, and patted dry on a flat paper. It was blocked with 3% skim milk powder at 300 μL/well, and incubated at 37° C. for 1 h. The blocking solution was poured off, washed 4 times with a plate washer, and patted dry on a flat paper. Negative control and positive control were set up. […] The positive control and antibody were diluted to 10 μg/mL with 3% skim milk powder as the starting concentration, and then diluted by 3-fold gradient (11 gradients in total), and a blank well was set up and only the diluent was added. It was incubated at 37° C. for 1 h at 100 μL/well. The liquid in the well was discarded, washed 4 times with a plate washer, and patted dry on a flat paper. Goat anti-human IgG Fc was diluted with 3% skim milk powder at 1:10000, and incubated at 37° C. for 1 h at 100 μL/well. It was washed 6 times with a plate washer, and patted dry on a flat paper. TMB color developing solution was added at 100 μL/well, and wrapped with aluminum foil. Color development was performed at 37° C. in the dark for 8 min. Termination solution 1M HCl was added to terminate the color development reaction at 100 μL/well. Readings were taken at 450 nm on an ELISA reader.

Human 4-1BB His = molecular target: T2, Human 4-1BB His (human, UniProt Q07011 24-186); assay: ELISA: Human 4-1BB His coated (0.2 ug/mL), antibody titrated, goat anti-human IgG Fc detection (Example 3)
T2 construct: Bought protein; lots 198-2146F1-W6 and 2407c-214FF1-YC; also called human 4-1BB protein; 4-1BB protein; not shown: His tag
T2 sequence (Q07011 24-186 limits assumed): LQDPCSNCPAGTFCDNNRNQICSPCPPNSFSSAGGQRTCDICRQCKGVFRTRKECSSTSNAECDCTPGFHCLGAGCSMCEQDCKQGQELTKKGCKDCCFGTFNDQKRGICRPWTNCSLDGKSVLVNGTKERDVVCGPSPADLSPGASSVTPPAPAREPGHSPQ
Experimental: Human 4-1BB His (manufacturer: Acro, CAT: 41B-H5258, LOT: 198-2146F1-W6) was diluted to 0.2 μg/mL with a coating solution (1×PBS, pH7.4), and coated in 96-well ELISA plate at 100 μL/well overnight at 4° C. The coating solution was poured off. Each well was washed with 1×PBST at 300 μL, washed 4 times with a plate washer, and patted dry on a flat paper. It was blocked with 3% skim milk powder at 300 μL/well, and incubated at 37° C. for 1 h. The blocking solution was poured off, washed 4 times with a plate washer, and patted dry on a flat paper. Negative control and positive control were set up. […] The variable region of the antibody sequence of the positive control consists of SEQ ID NO: 15 and SEQ ID NO: 19, with the addition of the constant region of human IgG1 (SEQ ID NO: 46 and SEQ ID NO: 47). The positive control and antibody were diluted to 10 μg/mL with 3% skim milk powder as the starting concentration, and then diluted by 3-fold gradient (11 gradients in total), and a blank well was set up and only the diluent was added. It was incubated at 37° C. for 1 h at 100 μL/well. The liquid in the well was discarded, washed 4 times with a plate washer, and patted dry on a flat paper. Goat anti-human IgG Fc was diluted with 3% skim milk powder at 1:20000, and incubated at 37° C. for 1 h at 100 μL/well. It was washed 6 times with a plate washer, and patted dry on a flat paper. TMB color developing solution was added at 100 μL/well, and wrapped with aluminum foil. Color development was performed at 37° C. in the dark for 8 min. Termination solution 1M HCl was added to terminate the color development reaction at 100 μL/well. Readings were taken at 450 nm on an ELISA reader.

B1: Antibody E1 (bispecific antibody, human IgG1, kappa)
light: DIVMTQSPATLSVSPGERATLSCKASQNVGSNVDWYQQKPGQSPRVLIYKASIRYTGIPARFSGSGSGTEFTLTISILQSEDFAVYFCMQSKSYPITFGQGTKLEIKRTVAAPSVFIFPPSDEQLKSGTASVVCLLNNFYPREAKVQWKVDNALQSGNSQESVTEQDSKDSTYSLSSTLTLSKADYEKHKVYACEVTHQGLSSPVTKSFNRGEC
heavy: not shown
notes: IgG1 subtype; full-length TNFR2 antibody with 4-1BB scFv at the C-terminus of the heavy chains
EC50 (read off the curve) (Human-TNFR2-His): ~0.09 nM
EC50 (read off the curve) (Human 4-1BB His): ~0.2 nM
